Assay results taken from patent publication US20260069728A1, “MULTI-TARGETING COMPOUND AND USE THEREOF” (Chengdu Shetai Medical Technology Co., Ltd., priority 2023, published 2026).
Read-outs that look alike come from different tables or passages of the source.

Assays:
[1] = Small animal PET imaging and biodistribution study; assay type: in vivo, NSG mice; conditions: NSG, mouse, in vivo, iv, 7.4 MBq, total radioactivity
Protocol: (§1) Eleven NSG mice bearing subcutaneous xenograft tumors (U87 MG cells), with tumor sizes approximately 150 mm^3, were used. The mice were intravenously injected via the tail vein with approximately 7.4 MBq of ^68Ga-labeled SDYD01, SDYD02, SDYD03. SDYD04, SDYD05, SDYD06, SDYD07, SDYD08 or SDYD07-1 compounds, or with ^[…]-labeled FAPI-04 or FAP2286 compounds as tracers. Micro PET/CT imaging was performed at 30 min, 60 min, and 120 min post-injection. Static images were acquired in 3D mode for 20 minutes. Reconstruction was performed using the OSEM3D/MAP method to obtain attenuation-corrected PET/CT fusion images.
(§2) NSG mice bearing subcutaneous xenograft tumors (U87 MG cells) were divided into 3 groups, with 11 mice in each group. They were intravenously injected via the tail vein with ^68Ga-labeled SDYD01, SDYD02, SDYD03. SDYD04, SDYD05, SDYD06. SDYD07, SDYD08, or SDYD07-1 compounds, or with ^68Ga-labeled FAPI-04 or FAP2286 compounds as tracers. Tumor-bearing mice injected with ^68Ga-labeled compounds SDYD01, SDYD02, SDYD03, SDYD04, SDYD05, SDYD06, FAPI-04, as well as 68Ga-labeled compounds FAPI-04 and FAP2286, were euthanized at 30 min. 60 min, and 120 min, respectively, for each group. Tumor-bearing mice injected with ^68Ga-labeled compounds SDYD07, SDYD08, and SDYD07-1 were euthanized at 30 min, 60 min, and 90 min, respectively, for each group. Blood, tumors, and other major organs and tissues were collected, weighed, and measured for radioactivity. After radioactive decay correction, the standardized uptake value (SUV) and percentage injected dose per gram of tissue (% ID/g) were calculated. In these figures, (a) represents the PET/CT imaging results, (b) represents the biodistribution results, and (c) represents the relative ratios of radioactive uptake in tumor versus normal tissues.

[2] = tested on: subcutaneous xenograft tumors (U87 MG cells); assay: Small animal PET imaging and biodistribution study; assay type: in vivo, NSG mice
Protocol: as §1, §2

[3] = Stability of radioligands in PBS buffer (radio-HPLC); assay type: physicochemical
Protocol: The purpose of this experiment was to test the stability of the radioligands under buffer conditions simulating the physiological environment. This stability is a prerequisite for further animal experiments.
1. ^68Ga-SDYD01: ^68Ga-SDYD01 was added to PBS buffer (pH=7.4) and incubated at 37° C. The mixture samples were taken for radio-HPLC analysis after 0.5 hours, 1 hour, and 2 hours of incubation. The stability of ^68Ga-SDYD01 in PBS buffer: the radiochemical purities of ^68Ga-SDYD01 after incubation in PBS for 0.5 hours, 1 hour, and 2 hours were 98%, 97%, and 97%, respectively (FIG. 4).
2. ^177Lu-SDYD01: ^177Lu-SDYD01 was added to PBS buffer (pH=7.4) and incubated at 37° C. The mixture samples were taken for radio-HPLC analysis after 24 hours, 48 hours, and 120 hours of incubation. The stability of ^177Lu-SDYD01 in PBS buffer: the radiochemical purities of ^177Lu-SDYD01 after incubation in PBS for 24 hours, 48 hours, and 120 hours were 97%, 96%, and 94%, respectively (FIG. 5).
1. ^68Ga-SDYD02: ^68Ga-SDYD02 was added to PBS buffer (pH=7.4) and incubated at 37° C. The mixture samples were taken for radio-HPLC analysis after 0.5 hours, 1 hour, and 2 hours of incubation. The stability of ^68Ga-SDYD02 in PBS buffer: the radiochemical purities of ^68Ga-SDYD02 after incubation in PBS for 0.5 hours, 1 hour, and 2 hours were 96%, 95% and 93%, respectively (FIG. 10).
2. ^177Lu-SDYD02: ^177Lu-SDYD02 was added to PBS buffer (pH=7.4) and incubated at 37° C. The mixture samples were taken for radio-HPLC analysis after 24 hours, 48 hours, and 120 hours of incubation. The stability of ^177Lu-SDYD02 in PBS buffer: the radiochemical purities of ^177Lu-SDYD02 after incubation in PBS for 24 hours, 48 hours, and 120 hours were 95%, 91% and 87%, respectively (FIG. 11).
1. ^68Ga-SDYD05: ^68Ga-SDYD05 was added to PBS buffer (pH=7.4) and incubated at 37° C. The mixture samples were taken for radio-HPLC analysis after 0.5 hours, 1 hour, and 2 hours of incubation. The stability of ^68Ga-SDYD05 in PBS buffer: the radiochemical purities of ^68Ga-SDYD05 after incubation in PBS for 0.5 hours, 1 hour, and 2 hours were 98%, 96% and 95%, respectively (FIG. 16).
2. ^177Lu-SDYD05: ^177Lu-SDYD05 was added to PBS buffer (pH=7.4) and incubated at 37° C. The mixture samples were taken for radio-HPLC analysis after 24 hours, 48 hours, and 120 hours of incubation. The stability of ^177Lu-SDYD05 in PBS buffer: the radiochemical purities of ^177Lu-SDYD05 after incubation in PBS for 24 hours, 48 hours, and 120 hours were 97%, 96% and 96%, respectively (FIG. 17).
1. ^68Ga-SDYD06: ^68Ga-SDYD06 was added to PBS buffer (pH=7.4) and incubated at 37° C. The mixture samples were taken for radio-HPLC analysis after 0.5, 1, and 2 hours of incubation. The stability of ^68Ga-SDYD06 in PBS buffer: the radiochemical purities of ^68Ga-SDYD06 after incubation in PBS for 0.5 hours, 1 hour, and 2 hours were 96%, 94% and 93%, respectively (FIG. 22).
2. ^177Lu-SDYD06: ^177Lu-SDYD06 was added to PBS buffer (pH=7.4) and incubated at 37° C. The mixture samples were taken for radio-HPLC analysis after 24 hours, 48 hours, and 120 hours of incubation.
1. ^68Ga-SDYD03: ^68Ga-SDYD03 was added to PBS buffer (pH=7.4) and incubated at 37° C. The mixture samples were taken for radio-HPLC analysis after 0.5 hours, 1 hour, and 2 hours of incubation. The stability of ^68Ga-SDYD03 PBS in PBS buffer: the radiochemical purities of ^68Ga-SDYD03 after incubation in PBS for 0.5 hours, 1 hour, and 2 hours were 96%, 96% and 95%, respectively (FIG. 27).
2. ^177Lu-SDYD03: ^177Lu-SDYD03 was added to PBS buffer (pH=7.4) and incubated at 37° C. The mixture samples were taken for radio-HPLC analysis after 24 hours, 48 hours, and 120 hours of incubation. The stability of ^177Lu-SDYD03 in PBS buffer: the radiochemical purities of ^177Lu-SDYD03 after incubation in PBS for 24 hours, 48 hours, and 120 hours are 99%, 96% and 94%, respectively (FIG. 28). […]

[4] = absolute uptake value in the tumor

Structure (SMILES)	tissue uptake at 0.5 h [1, 4] [%ID/g]	tissue uptake at 1 h [1, 4] [%ID/g]	radioactive uptake in the tumor sites (in words) ([2]; mouse, in vivo)	stability in PBS buffer (in words) [3]	tissue uptake at 0.5 h ([1]; 30 minutes post-injection, read-out: absolute uptake value in the tumor) [%ID/g]	tissue uptake at 1 h ([1]; 60 minutes post-injection, read-out: absolute uptake value in the tumor) [%ID/g]	radioactive uptake in the tumor sites (in words) ([2]; tail vein injection, U87 MG tumor-bearing NSG mice)	stability in PBS buffer (in words) ([3]; PBS buffer pH=7.4, 37° C.)	tissue uptake at 2 h [1, 4] [%ID/g]	radioactive uptake in non-target organs (in words) ([2]; mouse, in vivo)	target/non-target ratios (in words) ([2]; mouse, in vivo)	tumor uptake and tumor retention time, comparison (in words) ([2]; mouse, in vivo)
CCCCCC(=O)N[C@@H]1CSCc2cc(CSCCNC(=O)[C@@H](CCCCNC(=O)CN3CCN(CC(=O)O)CCN(CC(=O)O)CCN(CC(=O)O)CC3)NC(=O)COCCOCCNC(=O)COCCOCCNC(=O)CCN3C(=O)CC(SCCNC(=O)CCC(=O)N[C@@H](CCCNC(=N)N)C(=O)N[C@@H](CCCNC(=N)N)C(=O)N[C@@H](Cc4ccc5ccccc5c4)C(=O)N[C@@H]4CSSC[C@@H](C(=O)N[C@@H](CCCNC(=N)N)C(N)=O)NC(=O)[C@H](CCCNC(N)=O)NC(=O)[C@H](CCCNC(=N)N)NC(=O)[C@H](Cc5ccc(O)cc5)NC(=O)[C@@H]5CCCN5C(=O)[C@H](CCCCN)NC(=O)[C@H](CCCCN)NC(=O)[C@H](CCCNC(N)=O)NC(=O)[C@H](Cc5ccc(O)cc5)NC4=O)C3=O)cc(c2)CSC[C@@H](C(=O)O)NC(=O)[C@H](Cc2ccccc2)NC(=O)[C@H](CCC(N)=O)NC(=O)C([C@@H](C)O)NC(=O)[C@@H]2CCCN2C(=O)[C@@H]2CCCN2C1=O (single isomer, unassigned) [^68Ga-SDYD02, metal not drawn]	≥ 10	≥ 10	significant radioactive uptake in the tumor sites	quite stable in PBS buffer								
CC(C)CC(CC(C)C)NC(=O)[C@H](Cc1cnc[nH]1)NC(=O)CNC(=O)C(NC(=O)[C@H](C)NC(=O)[C@H](Cc1c[nH]c2ccccc12)NC(=O)[C@H](CCC(N)=O)NC(=O)[C@@H](Cc1ccccc1)NC(=O)COCC(=O)Nc1ccc(CNC(=O)COCCOCCNC(=O)COCCOCCNC(=O)[C@H](CCCCNC(=O)CN2CCN(CC(=O)O)CCN(CC(=O)O)CCN(CC(=O)O)CC2)NC(=O)CCC(=O)N2CCN(CCCOc3ccc4nccc(C(=O)NCC(=O)N5CC(F)(F)C[C@H]5C#N)c4c3)CC2)cc1)C(C)C (single isomer, unassigned) [^68Ga-SDYD03, metal not drawn]					≥ 10	≥ 10	significant radioactive uptake in the tumor sites	quite stable in PBS buffer				
CCCCCC(=O)N[C@@H]1CSCc2cc(CSCCNC(=O)COCCOCCNC(=O)COCCOCCNC(=O)CSC3CC(=O)N(CCC(=O)N[C@H](CCCCNC(=O)CN4CCN(CC(=O)O)CCN(CC(=O)O)CCN(CC(=O)O)CC4)C(=O)NCc4ccc(C(=O)NCCC[C@@H]5C(=O)N[C@@H](CCCNC(=N)N)C(=O)N[C@@H](Cc6ccc7ccccc7c6)C(=O)NCC(=O)N[C@H](Cc6ccc(O)cc6)C(=O)N5C)cc4)C3=O)cc(c2)CSC[C@@H](C(=O)O)NC(=O)[C@H](Cc2ccccc2)NC(=O)[C@H](CCC(N)=O)NC(=O)C([C@@H](C)O)NC(=O)[C@@H]2CCCN2C(=O)[C@@H]2CCCN2C1=O (single isomer, unassigned) [^68Ga-SDYD06, metal not drawn]	≥ 10	≥ 10	significant radioactive uptake in the tumor sites	quite stable in PBS buffer								
N#C[C@@H]1CC(F)(F)CN1C(=O)CNC(=O)c1ccnc2ccc(OCCCN3CCN(C(=O)[C@H](CCCCNC(=O)CCN4C(=O)CC(SCC(=O)NCCOCCOCCOCCOCCC(=O)NCCCC[C@@H]5NC(=O)[C@@H](Cc6ccc(O)cc6)NC(=O)[C@H](CC(=O)O)NC(=O)CNC(=O)[C@H](CCCNC(=N)N)NC5=O)C4=O)NC(=O)CCC(C(=O)O)N4CCN(CC(=O)O)CCN(CC(=O)O)CCN(CC(=O)O)CC4)CC3)cc12 (single isomer, unassigned) [^68Ga-SDYD07, metal not drawn]	≥ 10	≥ 10	significant radioactive uptake in the tumor sites	quite stable in PBS buffer					~10	significantly reduced at 60 minutes	significantly increased target/non-target ratios	higher tumor uptake and longer tumor retention time
CCCCCC(=O)N[C@H]1CSCc2cc(CSCCNC(=O)[C@H](CCCCNC(=O)CCN3C(=O)CC(SCC(=O)NCCOCCOCCOCCOCCC(=O)NCCCC[C@@H]4NC(=O)[C@@H](Cc5ccc(O)cc5)NC(=O)[C@H](CC(=O)O)NC(=O)CNC(=O)[C@H](CCCNC(=N)N)NC4=O)C3=O)NC(=O)CCC(C(=O)O)N3CCN(CC(=O)O)CCN(CC(=O)O)CCN(CC(=O)O)CC3)cc(c2)CSC[C@@H](C(=O)O)NC(=O)[C@H](Cc2ccccc2)NC(=O)[C@H](CCC(N)=O)NC(=O)C([C@@H](C)O)NC(=O)[C@@H]2CCCN2C(=O)[C@@H]2CCCN2C1=O (single isomer, unassigned) [^68Ga-SDYD08, metal not drawn]	≥ 10	≥ 10	significant radioactive uptake in the tumor sites	quite stable in PBS buffer								
